These results are taken from US20230374150A1 (Memorial Sloan Kettering, published 2023).

Residue numbers refer to the chain shown, from its start.

Sequences and labels used below:
B1: 10J5-chimeric J591 (antibody, V domains shown)
VH: EVQLQQSGPELVKPGTSVRISCKTSGYTFTEYTIHWVKQSHGKSLEWIGNINPNNGGTTYNQKFEDKATLTVDKSSSTAYMELRSLTSEDSAVYYCAAGWNFDYWGQGTTLTVSS
VL: DIVMTQSHKFMSTSVGDRVSIICKASQDVGTAVDWYQQKPGQSPKLLIYWASTRHTGVPDRFTGSGSGTDFTLTITNVQSEDLADYFCQQYNSYPLTFGAGTMLDLKR
notes: also called J591 chimeric antibody
B2: anti-PSMAxhuC825 clone BC192 (PSMA LALA) (bispecific antibody, human IgG1, kappa, L234A L235A)
light: DIQLTQSPSFLSASVGDRVTITCRASQDVGTALDWYQQKPGKAPKLLIYWASTLHSGVPSRFSGSGSGTEFTLTISSLQPEDFATYYCQQYNSYPLTFGQGTKLEIKRTVAAPSVFIFPPSDEQLKSGTASVVCLLNNFYPREAKVQWKVDNALQSGNSQESVTEQDSKDSTYSLSSTLTLSKADYEKHKVYACEVTHQGLSSPVTKSFNRGECTSGGGGSGGGGSGGGGSHVQLVESGGGLVQPGGSLRLSCAASGFSLTDYGVHWVRQAPGKGLEWLGVIWSGGGTAYNTALISRFTISRDNSKNTLYLQMNSLRAEDTAVYYCARRGSYPYNYFDAWGCGTLVTVSSGGGGSGGGGSGGGGSGGGGSGGGGSGGGGSQAVVTQEPSLTVSPGGTVTLTCGSSTGAVTASNYANWVQQKPGQCPRGLIGGHNNRPPGVPARFSGSLLGGKAALTLLGAQPEDEAEYYCALWYSDHWVIGGGTKLTVLG
heavy: not shown
B3: anti-PSMAxhuC825 clone BC193 (PSMA K322) (bispecific antibody)
light: B2 light
heavy: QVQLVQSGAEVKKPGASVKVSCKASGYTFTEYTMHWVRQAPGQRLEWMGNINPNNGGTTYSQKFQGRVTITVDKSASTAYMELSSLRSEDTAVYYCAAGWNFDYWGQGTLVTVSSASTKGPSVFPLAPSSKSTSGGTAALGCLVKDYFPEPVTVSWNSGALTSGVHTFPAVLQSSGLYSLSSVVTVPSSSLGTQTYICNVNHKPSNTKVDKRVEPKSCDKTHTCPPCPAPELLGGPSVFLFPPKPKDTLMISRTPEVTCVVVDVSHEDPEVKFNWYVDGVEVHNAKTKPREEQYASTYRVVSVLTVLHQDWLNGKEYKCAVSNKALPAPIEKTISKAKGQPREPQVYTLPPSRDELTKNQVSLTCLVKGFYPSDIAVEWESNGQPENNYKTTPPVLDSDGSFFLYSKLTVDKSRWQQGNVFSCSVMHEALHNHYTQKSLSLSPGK
B4: humanized anti-PSMAxCD3 BsAb BC243 (H2L3) (bispecific antibody, human IgG1, kappa, N297A)
light: DIVMTQSPSSLSASVGDRVTITCRASQDVGTALDWYQQKPGKAPELLIYWASSLHSGVPSRFRGSGSGTDFTLTISSVQPEDFATYYCQQYNSYPLTFGQGTKLEIKRTVAAPSVFIFPPSDEQLKSGTASVVCLLNNFYPREAKVQWKVDNALQSGNSQESVTEQDSKDSTYSLSSTLTLSKADYEKHKVYACEVTHQGLSSPVTKSFNRGECTSGGGGSGGGGSGGGGSQVQLVQSGGGVVQPGRSLRLSCKASGYTFTRYTMHWVRQAPGKCLEWIGYINPSRGYTNYNQKFKDRFTISRDNSKNTAFLQMDSLRPEDTGVYFCARYYDDHYSLDYWGQGTPVTVSSGGGGSGGGGSGGGGSGGGGSGGGGSGGGGSDIQMTQSPSSLSASVGDRVTITCSASSSVSYMNWYQQTPGKAPKRWIYDTSKLASGVPSRFSGSGSGTDYTFTISSLQPEDIATYYCQQWSSNPFTFGCGTKLQITR
heavy: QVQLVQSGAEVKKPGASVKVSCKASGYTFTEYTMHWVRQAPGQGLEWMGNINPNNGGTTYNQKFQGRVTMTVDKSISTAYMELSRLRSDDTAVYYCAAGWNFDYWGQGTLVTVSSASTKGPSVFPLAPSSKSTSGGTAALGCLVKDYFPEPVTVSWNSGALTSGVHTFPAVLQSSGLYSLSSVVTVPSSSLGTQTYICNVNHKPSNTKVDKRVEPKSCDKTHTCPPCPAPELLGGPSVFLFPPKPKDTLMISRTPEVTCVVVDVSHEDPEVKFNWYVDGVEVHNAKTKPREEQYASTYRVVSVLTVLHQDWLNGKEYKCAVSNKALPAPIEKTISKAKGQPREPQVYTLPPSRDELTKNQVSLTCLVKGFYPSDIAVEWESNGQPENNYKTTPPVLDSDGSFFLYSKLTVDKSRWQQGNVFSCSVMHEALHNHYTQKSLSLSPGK
notes: IgG(L)-scFv format, J591_VL-3 + J591_VH-2
B5: humanized anti-PSMAxCD3 BsAb BC245 (H3L3) (bispecific antibody, human IgG1, kappa, N297A)
light: B4 light
heavy: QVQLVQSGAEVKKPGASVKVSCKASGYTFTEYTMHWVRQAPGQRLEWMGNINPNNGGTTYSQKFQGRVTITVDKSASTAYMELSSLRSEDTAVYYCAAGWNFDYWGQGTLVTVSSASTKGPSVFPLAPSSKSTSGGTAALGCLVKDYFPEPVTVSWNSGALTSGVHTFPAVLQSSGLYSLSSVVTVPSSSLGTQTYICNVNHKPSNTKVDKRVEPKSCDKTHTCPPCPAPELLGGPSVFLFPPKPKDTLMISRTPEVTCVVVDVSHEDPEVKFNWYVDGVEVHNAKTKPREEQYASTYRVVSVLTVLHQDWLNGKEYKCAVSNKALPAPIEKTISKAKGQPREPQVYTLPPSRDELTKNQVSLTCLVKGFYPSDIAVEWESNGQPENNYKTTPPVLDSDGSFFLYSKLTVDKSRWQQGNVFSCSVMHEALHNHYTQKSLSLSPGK
notes: IgG(L)-scFv format, J591_VL-3 + J591_VH-3
B6: humanized anti-PSMAxCD3 BsAb BC244a (H2L1) (bispecific antibody, human IgG1, kappa, N297A)
light: B4 light with V3Q, M4L, S10F, E45K, S53T, R63S, D70E, V78L
heavy: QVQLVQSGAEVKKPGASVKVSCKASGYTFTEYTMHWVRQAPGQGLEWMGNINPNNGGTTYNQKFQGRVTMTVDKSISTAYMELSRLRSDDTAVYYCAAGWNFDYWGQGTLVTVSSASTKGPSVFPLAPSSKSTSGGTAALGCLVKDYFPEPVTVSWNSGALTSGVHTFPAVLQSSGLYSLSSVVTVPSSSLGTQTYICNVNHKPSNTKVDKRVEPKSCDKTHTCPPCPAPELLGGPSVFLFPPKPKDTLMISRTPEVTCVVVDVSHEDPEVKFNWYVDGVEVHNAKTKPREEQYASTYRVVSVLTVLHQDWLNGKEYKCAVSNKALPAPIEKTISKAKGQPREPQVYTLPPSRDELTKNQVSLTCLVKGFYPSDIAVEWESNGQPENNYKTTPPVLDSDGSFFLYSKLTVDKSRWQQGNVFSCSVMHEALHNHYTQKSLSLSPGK
notes: IgG(L)-scFv format
B7: murine J591 (antibody, V domains shown)
VH: B1 VH
VL: B1 VL
notes: also called original mouse antibody J591; mouse J591
B8: huJ591 (J591_VH-2 + J591_VL-1) (antibody, human IgG1, V domains shown)
VH: QVQLVQSGAEVKKPGASVKVSCKASGYTFTEYTMHWVRQAPGQGLEWMGNINPNNGGTTYNQKFQGRVTMTVDKSISTAYMELSRLRSDDTAVYYCAAGWNFDYWGQGTLVTVSS
VL: DIQLTQSPSFLSASVGDRVTITCRASQDVGTALDWYQQKPGKAPKLLIYWASTLHSGVPSRFSGSGSGTEFTLTISSLQPEDFATYYCQQYNSYPLTFGQGTKLEIK
notes: One of the 9 huJ591 versions; Human IgG1 frameworks
B9: huJ591 clone having combination of J591_VL-1 and J591_VH-3 (antibody, V domains shown)
VH: B8 VH with G44R, N61S, M70I, I76A, R85S, D89E
VL: DIQLTQSPSFLSASVGDRVTITCRASQDVGTALDWYQQKPGKAPKLLIYWASTLHSGVPSRFSGSGSGTEFTLTISSLQPEDFATYYCQQYNSYPLTFGQGTKLEIKR
notes: also called the select clone
B10: huJ591 (J591_VH-3 + J591_VL-3) (antibody, human IgG1, V domains shown)
VH: B8 VH with G44R, N61S, M70I, I76A, R85S, D89E
VL: B8 VL with Q3V, L4M, F10S, K45E, T53S, S63R, E70D, L78V
notes: as for B8
B11: huJ591 (J591_VH-2 + J591_VL-2) (antibody, human IgG1, V domains shown)
VH: B8 VH
VL: B8 VL with L54R
notes: as for B8
B12: huJ591 (J591_VH-2 + J591_VL-3) (antibody, human IgG1, V domains shown)
VH: B8 VH
VL: B8 VL with Q3V, L4M, F10S, K45E, T53S, S63R, E70D, L78V
notes: as for B8
B13: huJ591 (J591_VH-3 + J591_VL-2) (antibody, human IgG1, V domains shown)
VH: B8 VH with G44R, N61S, M70I, I76A, R85S, D89E
VL: B8 VL with L54R
notes: as for B8
B14: huJ591 (J591_VH-1 + J591_VL-1) (antibody, human IgG1, V domains shown)
VH: B8 VH with N61A, V72R
VL: B8 VL
notes: One of the 9 huJ591 versions made from three heavy and three light chain designs; Human IgG1 frameworks, expressed in CHO cells
B15: huJ591 (J591_VH-1 + J591_VL-2) (antibody, human IgG1, V domains shown)
VH: B8 VH with N61A, V72R
VL: B8 VL with L54R
notes: as for B8
B16: huJ591 (J591_VH-1 + J591_VL-3) (antibody, human IgG1, V domains shown)
VH: B8 VH with N61A, V72R
VL: B8 VL with Q3V, L4M, F10S, K45E, T53S, S63R, E70D, L78V
notes: as for B8

For one assay, the target named is T1, cynomolgus PSMA (ACRO) (cynomolgus, UniProt A0A2K5VNZ0 44-750).
T1 construct: Immobilised on the Biacore chip
Briefly: SPR Biacore, immobilised cynomolgus PSMA, 37 C, 1:1 fit. Here is the method: (§1) PSMA-BsAb Biacore Settings. Human PSMA antigen was immobilized directly on Fc2 at 3000 RU, and cynomolgus PSMA (ACRO) on Fc4 at 3000 RU (Blank on Fc1 and Fc3 as controls). Abs were run through the system at 37° C., at concentrations of 250 and 500 nM, with association time 1 min, dissociation time 15 min. Regeneration was performed at 30 mM NaOH. All data were fitted with 1:1 model.
Background: SPR reads the build-up and loss of mass on a sensor chip optically.
For the molecule B1, the affinity, expressed as Kd, was 3.71 nM; the koff turned out to be 0.000716 s⁻¹; the kon came to 193000 M⁻¹ s⁻¹; the “t ½” value came to 16.1 min.

For B2, the Kd worked out at 8.75 nM, the koff was 0.000459 s⁻¹, the kon turned out to be 52500 M⁻¹ s⁻¹ and the “t ½” value was 25.2 min.

With B3, the Kd was 4.88 nM, the koff was found to be 0.000209 s⁻¹, the on-rate constant (kon) turned out to be 42900 M⁻¹ s⁻¹ and the “t ½” value came to 55.2 min.

For B4, the Kd was found to be 3.58 nM, the koff was 0.000634 s⁻¹, the kon is 177000 M⁻¹ s⁻¹ and the “t ½” value came to 18.2 min.

As to B5, the Kd was 2.49 nM, the koff was determined as 0.000324 s⁻¹, the association rate constant (kon) came out at 130000 M⁻¹ s⁻¹ and the “t ½” value turned out to be 35.7 min.

B6: binding was characterised by a dissociation constant (Kd) of 6.67 nM, the koff worked out at 0.000781 s⁻¹, the kon turned out to be 117000 M⁻¹ s⁻¹ and the “t ½” value is 14.8 min.

In a further assay the target is T2, Human PSMA antigen (human, UniProt Q04609 44-750, limits assumed).
T2 construct: This is the antigen immobilised on the Biacore chip; also called FOLH1_HUMAN
T2 sequence (Q04609 44-750 limits assumed): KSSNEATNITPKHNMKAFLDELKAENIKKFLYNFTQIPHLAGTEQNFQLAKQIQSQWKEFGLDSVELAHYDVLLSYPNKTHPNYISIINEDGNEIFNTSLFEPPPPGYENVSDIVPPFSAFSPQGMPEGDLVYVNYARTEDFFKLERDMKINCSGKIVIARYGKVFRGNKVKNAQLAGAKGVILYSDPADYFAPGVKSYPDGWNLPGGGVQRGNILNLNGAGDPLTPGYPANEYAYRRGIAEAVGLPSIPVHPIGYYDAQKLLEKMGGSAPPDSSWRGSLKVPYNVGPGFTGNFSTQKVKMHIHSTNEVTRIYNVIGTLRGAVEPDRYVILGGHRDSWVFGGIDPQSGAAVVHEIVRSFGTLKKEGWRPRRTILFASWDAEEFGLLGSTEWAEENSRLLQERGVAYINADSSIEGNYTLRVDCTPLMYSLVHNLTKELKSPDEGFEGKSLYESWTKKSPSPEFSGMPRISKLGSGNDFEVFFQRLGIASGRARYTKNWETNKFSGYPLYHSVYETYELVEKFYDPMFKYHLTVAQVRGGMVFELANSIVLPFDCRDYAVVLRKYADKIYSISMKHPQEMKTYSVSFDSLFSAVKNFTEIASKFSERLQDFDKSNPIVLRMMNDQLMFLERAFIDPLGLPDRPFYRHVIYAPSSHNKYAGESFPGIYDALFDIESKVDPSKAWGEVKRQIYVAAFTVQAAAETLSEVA
Briefly: SPR Biacore, immobilised human PSMA, 37 C, 1:1 fit. As to the method: as §1
With B1, the Kd is 1.55 nM, the koff was determined as 0.000196 s⁻¹, the kon worked out at 127000 M⁻¹ s⁻¹ and the “t ½” value was 58.8 min.

With B2, the Kd is 2.9 nM, the koff came to 0.000279 s⁻¹, the kon came to 96200 M⁻¹ s⁻¹ and the “t ½” value turned out to be 41.3 min.

For the molecule B3, the Kd worked out at 2.15 nM, the koff came out at 0.00021 s⁻¹, the kon turned out to be 97500 M⁻¹ s⁻¹ and the “t ½” value is 55 min.

Take B4: the Kd was determined as 1.6 nM, the koff was determined as 0.000308 s⁻¹, the kon was determined as 192000 M⁻¹ s⁻¹ and the “t ½” value was 37.5 min.

As for B5, the affinity, expressed as Kd, was 1.06 nM; the koff came out at 0.000159 s⁻¹; the kon is 150000 M⁻¹ s⁻¹; the “t ½” value is 72.7 min.

For B6, binding was characterised by a dissociation constant (Kd) of 2.91 nM, the koff is 0.000444 s⁻¹, the kon was 152000 M⁻¹ s⁻¹ and the “t ½” value amounted to 26 min.

Another assay has as its target T2, Human PSMA antigen. Briefly: SPR (Biacore), 37 C, antibody over immobilized PSMA. The source says: The calculated kinetic parameters derived from SPR are shown in FIG. 4C, showing distinct differences in affinities when compared to the chimeric and the original mouse antibody J591. Increased affinity of anti-PSMA antibodies should translate into higher potency, while lower affinity anti-PSMA antibodies into lower toxicity. This affinity modulation is achieved without altering the CDR sequences. Based on the binding kinetics, the clone having combination of J591_VL-1 and J591_VH-3, which has near identical binding kinetics to those of J591 chimeric antibody, was chosen to build the PSMA-BsAb (BC244) of the present technology. The amino acid sequences of the light chain (SEQ ID NO: 11) and the heavy chain (SEQ ID NO: 12) of the select clone are shown in FIG. 12. Mutation N297A was used to remove glycosylation, and K322A to minimize complement activation.
In the case of B1, the Kd amounted to 0.206 nM, the koff came to 1.21e-05 s⁻¹ and the kon worked out at 58500 M⁻¹ s⁻¹.

Regarding B7, the Kd came out at 6.39 nM, the “fold-change KD relative to chimeric” value was 31 fold, the off-rate (koff) came out at 0.000113 s⁻¹ and the kon is 17700 M⁻¹ s⁻¹.

As to B8, the Kd is 3.54 nM, the “fold-change KD relative to chimeric” value was found to be 17.2 fold, the koff came out at 0.000176 s⁻¹ and the kon turned out to be 49700 M⁻¹ s⁻¹.

As to B9, the Kd turned out to be 1.67 nM, the “fold-change KD relative to chimeric” value was found to be 8.1 fold, the koff was found to be 9.69e-05 s⁻¹ and the kon was found to be 58200 M⁻¹ s⁻¹.

Take B10: the Kd came to 11.9 nM, the “fold-change KD relative to chimeric” value was found to be 57.8 fold, the koff came out at 0.00057 s⁻¹ and the kon came out at 47900 M⁻¹ s⁻¹.

Take B11: the Kd stood at 4.81 nM, the “fold-change KD relative to chimeric” value stood at 23.3 fold, the koff was determined as 0.000286 s⁻¹ and the kon was 59400 M⁻¹ s⁻¹.

In the case of B12, the Kd is 3.48 nM, the “fold-change KD relative to chimeric” value worked out at 16.9 fold, the koff amounted to 0.000211 s⁻¹ and the kon is 60600 M⁻¹ s⁻¹.

In the case of B13, the Kd came to 2.54 nM, the “fold-change KD relative to chimeric” value came out at 12.3 fold, the koff was found to be 0.000146 s⁻¹ and the kon amounted to 57400 M⁻¹ s⁻¹.

With B14, the Kd is 3.32 nM, the “fold-change KD relative to chimeric” value is 16.1 fold, the dissociation rate constant (koff) amounted to 0.000228 s⁻¹ and the kon amounted to 68600 M⁻¹ s⁻¹.

For the molecule B15, the Kd was 4.86 nM, the “fold-change KD relative to chimeric” value was 23.6 fold, the koff worked out at 0.000379 s⁻¹ and the kon was determined as 77900 M⁻¹ s⁻¹.

Consider B16, for which the Kd was found to be 3.55 nM, the “fold-change KD relative to chimeric” value came to 17.2 fold, the koff was 0.000285 s⁻¹ and the kon was found to be 80500 M⁻¹ s⁻¹.

Broadly, the Kd is a measure of binding affinity in units of concentration. What is called koff is the first-order rate constant of dissociation. The kon is the rate constant with which the complex forms.
